# T1: NT-L +278 VP16 (R23570V) (Xanthomonas sp. (engineered), UniProt P14727 SEQ:1-1013)
# T1 chain: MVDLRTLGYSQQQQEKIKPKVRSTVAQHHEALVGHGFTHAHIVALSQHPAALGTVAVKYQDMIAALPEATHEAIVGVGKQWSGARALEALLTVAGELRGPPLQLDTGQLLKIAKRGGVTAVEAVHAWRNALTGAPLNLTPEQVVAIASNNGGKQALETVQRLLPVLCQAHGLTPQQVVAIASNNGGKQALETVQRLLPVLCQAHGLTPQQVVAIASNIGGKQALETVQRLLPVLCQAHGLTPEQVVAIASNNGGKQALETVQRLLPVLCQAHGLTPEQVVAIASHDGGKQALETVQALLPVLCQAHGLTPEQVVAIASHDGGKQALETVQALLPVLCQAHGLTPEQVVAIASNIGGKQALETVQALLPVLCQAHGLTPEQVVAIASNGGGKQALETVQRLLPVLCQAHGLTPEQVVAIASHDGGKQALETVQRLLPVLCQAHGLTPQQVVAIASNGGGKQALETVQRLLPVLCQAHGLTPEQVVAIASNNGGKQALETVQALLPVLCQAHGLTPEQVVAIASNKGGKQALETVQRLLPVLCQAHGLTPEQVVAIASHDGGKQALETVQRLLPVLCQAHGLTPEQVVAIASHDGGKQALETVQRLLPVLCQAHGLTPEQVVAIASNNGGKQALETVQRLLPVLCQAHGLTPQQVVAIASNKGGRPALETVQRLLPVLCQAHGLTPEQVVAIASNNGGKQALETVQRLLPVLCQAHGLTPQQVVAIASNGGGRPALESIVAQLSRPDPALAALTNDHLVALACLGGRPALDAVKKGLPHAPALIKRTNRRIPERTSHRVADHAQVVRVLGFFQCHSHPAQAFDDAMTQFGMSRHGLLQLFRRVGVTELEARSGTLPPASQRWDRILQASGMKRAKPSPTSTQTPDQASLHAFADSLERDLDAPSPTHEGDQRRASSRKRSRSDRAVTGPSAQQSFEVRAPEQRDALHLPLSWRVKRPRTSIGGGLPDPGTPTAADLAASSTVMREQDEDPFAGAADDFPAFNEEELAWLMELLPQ
# B1: NT-L target (NTF3 promoter) (dsDNA)
# DNA 1: GGAGCCATCTGGCCGGGT
# DNA 2: ACCCGGCCAGATGGCTCC
# Molecular target: T1, NT-L +278 VP16 (R23570V)
# Test: cell_activity; luciferase reporter with 2 sites
# Details: tags: VP16
binder,measurement,value
B1,activity,74.5 fold activation
